The results in this text go back to patent US7432093B2, “Soluble, functional apoptotic protease-activating factor 1 fragments” (The Trustees of Princeton University, priority 2004, dated 2008).

The format of the data set is physicochemical, E. coli. As for the experimental part: Preferably, solubility of the fragment is assessed in a lysate of a bacterial culture used to produce the fragment at a concentration of at least 1 milligram per liter of bacterial culture.
All constructs for protein expression were generated using a standard PCR-based cloning strategy, and the identity of individual clones was verified by double-stranded plasmid sequencing. A soluble Apaf-1 fragment (residues 1-591, sequence (SEQ ID NO: 1) shown in FIG. 1) was over-expressed in Escherichia coli strain BL21(DE3) using plasmid vector pET29 having the nucleotide sequence described by Jiang et al. (2000, J. Biol. Chem. 275:31199-31203) operatively ligated therein. The coding sequence included an additional sequence encoding eight amino acid residues at its carboxy-terminal end (i.e., linked to residue 591 in the translated protein). These residues (Leu-Glu-His6) included a nickel-binding hexa-histidine sequence used for metal affinity chromatographic purification of the expressed protein. Soluble Apaf-1 was purified from the cell lysate using a Ni-NTA (nitrilotriacetic acid-ligated nickel; Qiagen) chromatography column. Dithiothreitol (DTT) and ethylenediamine tetraacetic acid (EDTA) were added to the eluted fraction in final concentrations of 5 millimolar each. After incubation for 30 minutes on ice, the protein solution was applied to an anion-exchange column (Source-15Q, Pharmacia) for further purification.

B1: 94-591: recombinant Apaf-1 fragment, residues 94-591 of SEQ ID NO: 1 (protein, listed as Homo sapiens)
chain: VSSSSGKDSVSGITSYVRTVLCEGGVPQRPVVFVTRKKLVNAIQQKLSKLKGEPGWVTIHGMAGCGKSVLAAEAVRDHSLLEGCFPGGVHWVSVGKQDKSGLLMKLQNLCTRLDQDESFSQRLPLNIEEAKDRLRILMLRKHPRSLLILDDVWDSWVLKAFDSQCQILLTTRDKSVTDSVMGPKYVVPVESSLGKEKGLEILSLFVNMKKADLPEQAHSIIKECKGSPLVVSLIGALLRDFPNRWEYYLKQLQNKQFKRIRKSSSYDYEALDEAMSISVEMLREDIKDYYTDLSILQKDVKVPTKVLCILWDMETEEVEDILQEFVNKSLLFCDRNGKSFRYYLHDLQVDFLTEKNCSQLQDLHKKIITQFQRYHQPHTLSPDQEDCMYWYNFLAYHMASAKMHKELCALMFSLDWIKAKTELVGPAHLIHEFVEYRHILDEKDCAVSENFQEFLSLNGHLLGRQPFPNIVQLGLCEPETSEVYQQAKLQAKQEVDNG
Consider B1, for which the Solubility entry was “++”.

B2: 1-589: recombinant Apaf-1 fragment, residues 1-589 of SEQ ID NO: 1 (protein, listed as Homo sapiens)
chain: MDAKARNCLLQHREALEKDIKTSYIMDHMISDGFLTISEEEKVRNEPTQQQRAAMLIKMILKKDNDSYVSFYNALLHEGYKDLAALLHDGIPVVSSSSGKDSVSGITSYVRTVLCEGGVPQRPVVFVTRKKLVNAIQQKLSKLKGEPGWVTIHGMAGCGKSVLAAEAVRDHSLLEGCFPGGVHWVSVGKQDKSGLLMKLQNLCTRLDQDESFSQRLPLNIEEAKDRLRILMLRKHPRSLLILDDVWDSWVLKAFDSQCQILLTTRDKSVTDSVMGPKYVVPVESSLGKEKGLEILSLFVNMKKADLPEQAHSIIKECKGSPLVVSLIGALLRDFPNRWEYYLKQLQNKQFKRIRKSSSYDYEALDEAMSISVEMLREDIKDYYTDLSILQKDVKVPTKVLCILWDMETEEVEDILQEFVNKSLLFCDRNGKSFRYYLHDLQVDFLTEKNCSQLQDLHKKIITQFQRYHQPHTLSPDQEDCMYWYNFLAYHMASAKMHKELCALMFSLDWIKAKTELVGPAHLIHEFVEYRHILDEKDCAVSENFQEFLSLNGHLLGRQPFPNIVQLGLCEPETSEVYQQAKLQAKQEVD
As to B2, the Solubility entry is listed as “++++”.

B3: Full Length Apaf-1: full-length (ca. 140-kilodalton) human Apaf-1 protein expressed in E. coli (protein, listed as Homo sapiens)
chain: MDAKARNCLLQHREALEKDIKTSYIMDHMISDGFLTISEEEKVRNEPTQQQRAAMLIKMILKKDNDSYVSFYNALLHEGYKDLAALLHDGIPVVSSSSGKDSVSGITSYVRTVLCEGGVPQRPVVFVTRKKLVNAIQQKLSKLKGEPGWVTIHGMAGCGKSVLAAEAVRDHSLLEGCFPGGVHWVSVGKQDKSGLLMKLQNLCTRLDQDESFSQRLPLNIEEAKDRLRILMLRKHPRSLLILDDVWDSWVLKAFDSQCQILLTTRDKSVTDSVMGPKYVVPVESSLGKEKGLEILSLFVNMKKADLPEQAHSIIKECKGSPLVVSLIGALLRDFPNRWEYYLKQLQNKQFKRIRKSSSYDYEALDEAMSISVEMLREDIKDYYTDLSILQKDVKVPTKVLCILWDMETEEVEDILQEFVNKSLLFCDRNGKSFRYYLHDLQVDFLTEKNCSQLQDLHKKIITQFQRYHQPHTLSPDQEDCMYWYNFLAYHMASAKMHKELCALMFSLDWIKAKTELVGPAHLIHEFVEYRHILDEKDCAVSENFQEFLSLNGHLLGRQPFPNIVQLGLCEPETSEVYQQAKLQAKQEVDNG
In the case of B3, the Solubility result is “−”.
